The target in experiment [1] is mouse melanocortin-3 receptor (mouse) (UniProt P33033).
Experiment [2] has as its target mouse melanocortin-1 receptor (mouse) (UniProt Q01727).
Experiment [3] has as its target mouse melanocortin-5 receptor (mouse) (UniProt P41149).
Experiment [4] deals with mouse melanocortin-3 receptor (mouse) (UniProt P33033). The experiment can be described thus: radioligand binding.
Experiment [5] concerns the target mouse melanocortin-4 receptor (mouse) (UniProt P56450). The experiment is described as follows: radioligand binding.

These results are taken from PMC5672800.

Sequence of mouse melanocortin-3 receptor (mouse) (P33033 whole entry): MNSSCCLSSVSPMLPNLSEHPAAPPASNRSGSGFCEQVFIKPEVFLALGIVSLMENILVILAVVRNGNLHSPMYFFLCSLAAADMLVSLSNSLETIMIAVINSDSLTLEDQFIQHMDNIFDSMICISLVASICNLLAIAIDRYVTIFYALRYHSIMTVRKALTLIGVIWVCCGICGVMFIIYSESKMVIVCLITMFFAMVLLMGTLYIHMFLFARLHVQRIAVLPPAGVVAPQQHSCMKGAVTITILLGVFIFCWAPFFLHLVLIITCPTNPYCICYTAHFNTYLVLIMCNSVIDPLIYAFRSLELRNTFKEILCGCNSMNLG
Sequence of mouse melanocortin-5 receptor (mouse) (P41149 whole entry): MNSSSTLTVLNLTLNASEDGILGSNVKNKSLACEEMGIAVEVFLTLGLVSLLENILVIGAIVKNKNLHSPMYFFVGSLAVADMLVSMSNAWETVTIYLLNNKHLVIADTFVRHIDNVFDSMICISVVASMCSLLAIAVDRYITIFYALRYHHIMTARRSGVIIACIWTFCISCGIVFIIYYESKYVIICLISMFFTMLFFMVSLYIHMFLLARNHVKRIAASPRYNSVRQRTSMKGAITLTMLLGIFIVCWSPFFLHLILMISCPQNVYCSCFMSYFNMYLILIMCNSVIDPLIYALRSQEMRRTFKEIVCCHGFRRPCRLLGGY
Sequence of mouse melanocortin-4 receptor (mouse) (P56450 whole entry): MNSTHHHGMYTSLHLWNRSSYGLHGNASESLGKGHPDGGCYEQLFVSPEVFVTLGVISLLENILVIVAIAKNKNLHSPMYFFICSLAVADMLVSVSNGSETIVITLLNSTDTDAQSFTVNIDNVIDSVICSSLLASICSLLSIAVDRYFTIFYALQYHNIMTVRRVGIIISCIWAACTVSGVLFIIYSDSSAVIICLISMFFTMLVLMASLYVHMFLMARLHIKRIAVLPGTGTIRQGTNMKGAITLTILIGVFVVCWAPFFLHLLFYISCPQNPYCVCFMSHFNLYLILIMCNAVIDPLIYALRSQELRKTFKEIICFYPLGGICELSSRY
Sequence of mouse melanocortin-1 receptor (mouse) (Q01727 whole entry): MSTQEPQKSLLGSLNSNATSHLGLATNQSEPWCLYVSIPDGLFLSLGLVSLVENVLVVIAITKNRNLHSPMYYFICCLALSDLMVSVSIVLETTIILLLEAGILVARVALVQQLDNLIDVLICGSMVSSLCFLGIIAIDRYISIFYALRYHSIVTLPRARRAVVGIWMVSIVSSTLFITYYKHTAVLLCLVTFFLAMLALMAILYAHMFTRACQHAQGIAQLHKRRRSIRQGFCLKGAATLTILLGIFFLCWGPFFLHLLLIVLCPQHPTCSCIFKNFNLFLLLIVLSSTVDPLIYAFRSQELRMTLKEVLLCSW

B1: compound 26 (peptide)
peptide: HRFF
HELM: PEPTIDE1{[ac].H.R.[O=C([C@@H](Cc1ccc(I)cc1)N[*:1])[*:2]].F.[am]}$$$$V2.0
SMILES: CC(=O)N[C@@H](Cc1c[nH]cn1)C(=O)N[C@@H](CCCNC(=N)N)C(=O)N[C@H](Cc1ccc(I)cc1)C(=O)N[C@@H](Cc1ccccc1)C(N)=O
As for B1, the cAMP AlphaScreen, HEK293 cells stably expressing the receptor: agonist EC50 in experiment [1] came to 1100 nM; in experiment [2], 92 nM; in experiment [3] it was 680 nM.

B2: compound 25 (peptide)
peptide: RRFF
HELM: PEPTIDE1{[ac].R.R.[O=C([C@@H](Cc1ccc(I)cc1)N[*:1])[*:2]].F.[am]}$$$$V2.0
SMILES: CC(=O)N[C@@H](CCCNC(=N)N)C(=O)N[C@@H](CCCNC(=N)N)C(=O)N[C@H](Cc1ccc(I)cc1)C(=O)N[C@@H](Cc1ccccc1)C(N)=O
Turning to B2, in experiment [1], the cAMP AlphaScreen, HEK293 cells stably expressing the receptor: agonist EC50 was 540 nM. The values for the IC50 in experiment [4] and in experiment [5] were 6500 nM and 455 nM, respectively.
